{
  "source": "paper doi:10.1101/2024.04.03.587999",
  "about": "(bioRxiv, 2024)",
  "target": "T1, Outer membrane protein A of Acinetobacter baumannii (recombinant AbOmpA) (Acinetobacter baumannii, UniProt Q6RYW5 20-356)",
  "T1 sequence (looked up)": "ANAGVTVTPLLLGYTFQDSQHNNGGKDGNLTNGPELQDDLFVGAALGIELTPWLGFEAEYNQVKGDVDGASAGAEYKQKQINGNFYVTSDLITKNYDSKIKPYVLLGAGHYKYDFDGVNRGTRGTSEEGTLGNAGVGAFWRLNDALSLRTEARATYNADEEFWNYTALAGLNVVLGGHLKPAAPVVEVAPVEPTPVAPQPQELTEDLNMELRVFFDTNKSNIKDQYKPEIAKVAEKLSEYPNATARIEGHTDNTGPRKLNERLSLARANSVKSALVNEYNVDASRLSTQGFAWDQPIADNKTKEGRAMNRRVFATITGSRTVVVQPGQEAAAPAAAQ",
  "assay": "SPR",
  "data": [
    {"binder": "QMGFMTSPKHSV", "note": "[P92]", "values": [
      {"measurement": "Kd", "value": 7.84, "unit": "nM"}
    ]}
  ]
}
